Assay results reported in paper PMC5705180.

The substances below were run against Recombinant human IGF-II R (CI-MPR), cation-independent mannose-6-phosphate receptor (human) (UniProt P11717) (assay: SPR).
“Bis-phosphoglycoprotein 30: bovine ribonuclease B carrying a bis-M6P-Man6GlcNAc2 glycan at Asn-34 (from UniProt P61823 27-150) (enzyme)” gave a Kd of 28.9 nM.
For “Cyclic phosphoglycopeptide 34: HIV-1 ZM109 V1V2 cyclic peptide carrying two bis-M6P-Man6GlcNAc2 glycans at N160 and N173”, the Kd was 2.35 nM.
In the case of “Phosphoglycoprotein 32: bovine ribonuclease B carrying the unnatural bis-M6P Man3GlcNAc2 glycan (from UniProt P61823 27-150) (enzyme)”, the Kd is reported as 168 nM.
